From patent US20230395193A1 (priority 2020, published 2023)

B1: M-Q9NQC3 (protein, UniProt Q9NQC3 1-1192, looked up)
Reticulon-4: MEDLDQSPLVSSSDSPPRPQPAFKYQFVREPEDEEEEEEEEEEDEDEDLEELEVLERKPAAGLSAAPVPTAPAAGAPLMDFGNDFVPPAPRGPLPAAPPVAPERQPSWDPSPVSSTVPAPSPLSAAAVSPSKLPEDDEPPARPPPPPPASVSPQAEPVWTPPAPAPAAPPSTPAAPKRRGSSGSVDETLFALPAASEPVIRSSAENMDLKEQPGNTISAGQEDFPSVLLETAASLPSLSPLSAASFKEHEYLGNLSTVLPTEGTLQENVSEASKEVSEKAKTLLIDRDLTEFSELEYSEMGSSFSVSPKAESAVIVANPREEIIVKNKDEEEKLVSNNILHNQQELPTALTKLVKEDEVVSSEKAKDSFNEKRVAVEAPMREEYADFKPFERVWEVKDSKEDSDMLAAGGKIESNLESKVDKKCFADSLEQTNHEKDSESSNDDTSFPSTPEGIKDRSGAYITCAPFNPAATESIATNIFPLLGDPTSENKTDEKKIEEKKAQIVTEKNTSTKTSNPFLVAAQDSETDYVTTDNLTKVTEEVVANMPEGLTPDLVQEACESELNEVTGTKIAYETKMDLVQTSEVMQESLYPAAQLCPSFEESEATPSPVLPDIVMEAPLNSAVPSAGASVIQPSSSPLEASSVNYESIKHEPENPPPYEEAMSVSLKKVSGIKEEIKEPENINAALQETEAPYISIACDLIKETKLSAEPAPDFSDYSEMAKVEQPVPDHSELVEDSSPDSEPVDLFSDDSIPDVPQKQDETVMLVKESLTETSFESMIEYENKEKLSALPPEGGKPYLESFKLSLDNTKDTLLPDEVSTLSKKEKIPLQMEELSTAVYSNDDLFISKEAQIRETETFSDSSPIEIIDEFPTLISSKTDSFSKLAREYTDLEVSHKSEIANAPDGAGSLPCTELPHDLSLKNIQPKVEEKISFSDDFSKNGSATSKVLLLPPDVSALATQAEIESIVKPKVLVKEAEKKLPSDTEKEDRSPSAIFSAELSKTSVVDLLYWRDIKKTGVVFGASLFLLLSLTVFSIVSVTAYIALALLSVTISFRIYKGVIQAIQKSDEGHPFRAYLESEVAISEELVQKYSNSALGHVNCTIKELRRLFLVDDLVDSLKFAVLMWVFTYVGALFNGLTLLILALISLFSVPVIYERHQAQIDHYLGLANKNVKDAMAKIQAKIPGLKRKAE
B2: M-Q9UBU6 (protein, UniProt Q9UBU6 1-413, looked up)
Protein FAM8A1: MAEGPEEARGHPPGQDDGGGDHEPVPSLRGPPTTAVPCPRDDPQAEPQAPGRPTAPGLAAAAAADKLEPPRELRKRGEAASGSGAELQEQAGCEAPEAAAPRERPARLSAREYSRQVHEWLWQSYCGYLTWHSGLAAFPAYCSPQPSPQSFPSGGAAVPQAAAPPPPQLGYYNPFYFLSPGAAGPDPRTAAGISTPAPVAGLGPRAPHVQASVRATPVTRVGSAAPSRSPSETGRQAGREYVIPSLAHRFMAEMVDFFILFFIKATIVLSIMHLSGIKDISKFAMHYIIEEIDEDTSMEDLQKMMVVALIYRLLVCFYEIICIWGAGGATPGKFLLGLRVVTCDTSVLIAPSRVLVIPSSNVSITTSTIRALIKNFSIASFFPAFITLLFFQHNRTAYDIVAGTIVVKRNGVR
modifications: interaction partner of viral M protein
B3: M-Q9NVI1 (protein, UniProt Q9NVI1 1-1328, looked up)
Fanconi anemia group I protein: MDQKILSLAAEKTADKLQEFLQTLREGDLTNLLQNQAVKGKVAGALLRAIFKGSPCSEEAGTLRRRKIYTCCIQLVESGDLQKEIASEIIGLLMLEAHHFPGPLLVELANEFISAVREGSLVNGKSLELLPIILTALATKKENLAYGKGVLSGEECKKQLINTLCSGRWDQQYVIQLTSMFKDVPLTAEEVEFVVEKALSMFSKMNLQEIPPLVYQLLVLSSKGSRKSVLEGIIAFFSALDKQHNEEQSGDELLDVVTVPSGELRHVEGTIILHIVFAIKLDYELGRELVKHLKVGQQGDSNNNLSPFSIALLLSVTRIQRFQDQVLDLLKTSVVKSFKDLQLLQGSKFLQNLVPHRSYVSTMILEVVKNSVHSWDHVTQGLVELGFILMDSYGPKKVLDGKTIETSPSLSRMPNQHACKLGANILLETFKIHEMIRQEILEQVLNRVVTRASSPISHFLDLLSNIVMYAPLVLQSCSSKVTEAFDYLSFLPLQTVQRLLKAVQPLLKVSMSMRDCLILVLRKAMFANQLDARKSAVAGFLLLLKNFKVLGSLSSSQCSQSLSVSQVHVDVHSHYNSVANETFCLEIMDSLRRCLSQQADVRLMLYEGFYDVLRRNSQLANSVMQTLLSQLKQFYEPKPDLLPPLKLEACILTQGDKISLQEPLDYLLCCIQHCLAWYKNTVIPLQQGEEEEEEEEAFYEDLDDILESITNRMIKSELEDFELDKSADFSQSTSIGIKNNICAFLVMGVCEVLIEYNFSISSFSKNRFEDILSLFMCYKKLSDILNEKAGKAKTKMANKTSDSLLSMKFVSSLLTALFRDSIQSHQESLSVLRSSNEFMRYAVNVALQKVQQLKETGHVSGPDGQNPEKIFQNLCDITRVLLWRYTSIPTSVEESGKKEKGKSISLLCLEGLQKIFSAVQQFYQPKIQQFLRALDVTDKEGEEREDADVSVTQRTAFQIRQFQRSLLNLLSSQEEDFNSKEALLLVTVLTSLSKLLEPSSPQFVQMLSWTSKICKENSREDALFCKSLMNLLFSLHVSYKSPVILLRDLSQDIHGHLGDIDQDVEVEKTNHFAIVNLRTAAPTVCLLVLSQAEKVLEEVDWLITKLKGQVSQETLSEEASSQATLPNQPVEKAIIMQLGTLLTFFHELVQTALPSGSCVDTLLKDLCKMYTTLTALVRYYLQVCQSSGGIPKNMEKLVKLSGSHLTPLCYSFISYVQNKSKSLNYTGEKKEKPAAVATAMARVLRETKPIPNLIFAIEQYEKFLIHLSKKSKVNLMQHMKLSTSRDFKIKGNILDMVLREDGEDENEEGTASEHGGQNKEPAKKKRKK
modifications: interactor of viral M protein
B4: M-Q9BV40 (protein, UniProt Q9BV40 1-100, looked up)
Vesicle-associated membrane …: MEEASEGGGNDRVRNLQSEVEGVKNIMTQNVERILARGENLEHLRNKTEDLEATSEHFKTTSQKVARKFWWKNVKMIVLICVIVFIIILFIVLFATGAFS
modifications: host interactor of M
B5: M-Q9BYC5 (protein, UniProt Q9BYC5 1-575, looked up)
Alpha-(1,6)-fucosyltransferase: MRPWTGSWRWIMLILFAWGTLLFYIGGHLVRDNDHPDHSSRELSKILAKLERLKQQNEDLRRMAESLRIPEGPIDQGPAIGRVRVLEEQLVKAKEQIENYKKQTRNGLGKDHEILRRRIENGAKELWFFLQSELKKLKNLEGNELQRHADEFLLDLGHHERSIMTDLYYLSQTDGAGDWREKEAKDLTELVQRRITYLQNPKDCSKAKKLVCNINKGCGYGCQLHHVVYCFMIAYGTQRTLILESQNWRYATGGWETVFRPVSETCTDRSGISTGHWSGEVKDKNVQVVELPIVDSLHPRPPYLPLAVPEDLADRLVRVHGDPAVWWVSQFVKYLIRPQPWLEKEIEEATKKLGFKHPVIGVHVRRTDKVGTEAAFHPIEEYMVHVEEHFQLLARRMQVDKKRVYLATDDPSLLKEAKTKYPNYEFISDNSISWSAGLHNRYTENSLRGVILDIHFLSQADFLVCTFSSQVCRVAYEIMQTLHPDASANFHSLDDIYYFGGQNAHNQIAIYAHQPRTADEIPMEPGDIIGVAGNHWDGYSKGVNRKLGRTGLYPSYKVREKIETVKYPTYPEAEK
modifications: interaction partner of SARS-CoV-2 M
B6: M-Q9BQT8 (protein, UniProt Q9BQT8 1-299, looked up)
Mitochondrial …: MSAKPEVSLVREASRQIVAGGSAGLVEICLMHPLDVVKTRFQIQRCATDPNSYKSLVDSFRMIFQMEGLFGFYKGILPPILAETPKRAVKFFTFEQYKKLLGYVSLSPALTFAIAGLGSGLTEAIVVNPFEVVKVGLQANRNTFAEQPSTVGYARQIIKKEGWGLQGLNKGLTATLGRHGVFNMVYFGFYYNVKNMIPVNKDPILEFWRKFGIGLLSGTIASVINIPFDVAKSRIQGPQPVPGEIKYRTCFKTMATVYQEEGILALYKGLLPKIMRLGPGGAVMLLVYEYTYSWLQENW
modifications: interaction partner of viral M protein
B7: M-Q9BQ95 (protein, UniProt Q9BQ95 49-431, looked up)
Evolutionarily conserved …: SSEQSLVPSPPEPRQRPTKALVPFEDLFGQAPGGERDKASFLQTVQKFAEHSVRKRGHIDFIYLALRKMREYGVERDLAVYNQLLNIFPKEVFRPRNIIQRIFVHYPRQQECGIAVLEQMENHGVMPNKETEFLLIQIFGRKSYPMLKLVRLKLWFPRFMNVNPFPVPRDLPQDPVELAMFGLRHMEPDLSARVTIYQVPLPKDSTGAADPPQPHIVGIQSPDQQAALARHNPARPVFVEGPFSLWLRNKCVYYHILRADLLPPEEREVEETPEEWNLYYPMQLDLEYVRSGWDNYEFDINEVEEGPVFAMCMAGAHDQATMAKWIQGLQETNPTLAQIPVVFRLAGSTRELQTSSAGLEEPPLPEDHQEEDDNLQRQQQGQS

Test system: SARS-CoV-1, MERS-CoV and SARS-CoV-2 proteins in HEK293T cells
Design: species or system human

Row | Molecule | MIST_MERS | MIST_SARS1 | MIST_SARS2 | Saint_MERS | Saint_SARS1 | Saint_SARS2
1 | B1 | 0 | 0.4448 | 0.8738 | 0 | 1 | 1
2 | B2 | 0 | 0.88 | 0.8045 | 0 | 0.63 | 0.97
3 | B3 | 0.8133 | 0.7245 | 0.5573 | 1 | 1 | 1
4 | B4 | 0.9874 | 0 | 0 | 1 | 0 | 0
5 | B5 | 0.963 | 0 | 0 | 0.98 | 0 | 0
6 | B6 | 0.4327 | 0.6946 | 0.8808 | 0 | 0.65 | 0.65
7 | B7 | 0 | 0.9893 | 0 | 0 | 0.97 | 0
